Data from the supplement of paper PMC7125110.
± gives the standard error. This sample holds only a part of the variants without activity.

B1: glmS ribozyme (parent)
chain: AUAAAAGCGCCAGAACUACAGAAAUGUAGUUGACGAGGAGGAGGUUUAUCGAAUUUUCGGCGGAUGCCUCCAAA

What was measured:
Details in all cases: with glucosamine-6-phosphate
glucosamine-6-phosphate [1] = variants of: B1; assay: self-cleavage kobs at 40 uM GlcN6P; higher = faster cleavage; RNA array
Summary of the method: (§1)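 Weighted Michaelis–Menten fits across concentrations supplied kcat and KM, based on kobs from one- or two-exponential decay fits to normalised per-tile medians. The data came from barcoded ribozyme variants transcribed in situ by E. coli RNA polymerase on sequenced MiSeq chips and tracked at 37 °C by a hybridised Cy3 probe. Glucosamine-6-phosphate (40 μM to 10 mM) in HEPES/KCl/Mg(OAc)2 buffer was flowed in.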

glucosamine-6-phosphate [2] = variants of: B1; assay: self-cleavage kobs at 160 uM GlcN6P; higher = faster cleavage; RNA array
Summary of the method: as §1

glucosamine-6-phosphate [3] = variants of: B1; assay: self-cleavage kobs at 640 uM GlcN6P; higher = faster cleavage; RNA array
Summary of the method: as §1

glucosamine-6-phosphate [4] = variants of: B1; assay: self-cleavage kobs at 2500 uM GlcN6P; higher = faster cleavage; RNA array
Summary of the method: as §1

glucosamine-6-phosphate [5] = variants of: B1; assay: self-cleavage kobs at 10000 uM GlcN6P; higher = faster cleavage; RNA array
Summary of the method: as §1

Row | Variant | self-cleavage kobs at 40 uM GlcN6P (glucosamine-6-phosphate [1]) [s⁻¹] | self-cleavage kobs at 160 uM GlcN6P (glucosamine-6-phosphate [2]) [s⁻¹] | self-cleavage kobs at 640 uM GlcN6P (glucosamine-6-phosphate [3]) [s⁻¹] | self-cleavage kobs at 2500 uM GlcN6P (glucosamine-6-phosphate [4]) [s⁻¹] | self-cleavage kobs at 10000 uM GlcN6P (glucosamine-6-phosphate [5]) [s⁻¹]
1 | G44C G62C | < 1e-05 | < 1e-05 | < 1e-05 | < 1e-05 | < 1e-05
2 | A36C G41U U45G C67G | < 1e-05 |  |  |  | < 1e-05
3 | C8A C11G A12G C68U | < 1e-05 |  |  |  | 
4 | G40C A48C A52U | < 1e-05 |  | < 1e-05 | < 1e-05 | 
5 | G38U G66A U69G | 4.77e-05 ± 2e-05 |  |  |  | 4.02e-05 ± 1.6e-05
6 | U31C G51U | < 1e-05 |  |  |  | < 1e-05
7 | C34A U47G U54G G59U C68G | 0.000664 ± 0.0002 |  |  |  | 0.000474 ± 0.00012
8 | C8A G66U | < 1e-05 | < 1e-05 |  | < 1e-05 | 
9 | G35A U46A | < 1e-05 | < 1e-05 | < 1e-05 | < 1e-05 | < 1e-05
10 | G13U G41U U46G | < 1e-05 |  |  |  | 
11 | G35U C50U C67G | 0.000272 ± 0.0001 |  |  |  | 
12 | A48G A64U | < 1e-05 | < 1e-05 | < 1e-05 |  | < 1e-05
13 | C16U G35A | < 1e-05 | < 1e-05 | < 1e-05 |  | 
14 | G9A A14G | < 1e-05 | < 1e-05 |  |  | 5.01e-05 ± 1.3e-05
15 | A36G U45G G51U U54C U56A C68A | < 1e-05 |  |  |  | 
16 | G62A C67U | < 1e-05 |  |  | < 1e-05 | < 1e-05
17 | C11G C68A | < 1e-05 |  |  |  | 
18 | C50A G62U G63A | < 1e-05 | < 1e-05 | < 1e-05 | < 1e-05 | < 1e-05
19 | U31A U49G C71U | < 1e-05 |  |  |  | 
20 | A33G A52C U55G | < 1e-05 |  |  |  | 
21 | G13C G44U | < 1e-05 | < 1e-05 | < 1e-05 | < 1e-05 | < 1e-05
22 | C10U G44A | < 1e-05 | < 1e-05 | < 1e-05 |  | < 1e-05
23 | A6G G62U | < 1e-05 | < 1e-05 | < 1e-05 | < 1e-05 | < 1e-05
24 | G51C A53U | < 1e-05 | < 1e-05 |  | < 1e-05 | 

Row | Variant | self-cleavage kobs at 40 uM GlcN6P (glucosamine-6-phosphate [1]) [s⁻¹] | self-cleavage kobs at 160 uM GlcN6P (glucosamine-6-phosphate [2]) [s⁻¹] | self-cleavage kobs at 640 uM GlcN6P (glucosamine-6-phosphate [3]) [s⁻¹] | self-cleavage kobs at 2500 uM GlcN6P (glucosamine-6-phosphate [4]) [s⁻¹] | self-cleavage kobs at 10000 uM GlcN6P (glucosamine-6-phosphate [5]) [s⁻¹]
25 | G32C G35A A48U A52U U54C C67U | < 1e-05 | < 1e-05 | < 1e-05 |  | 
26 | U45A U55A A64G | 0.00112 ± 0.00022 |  | 0.00335 ± 0.0011 | 0.00972 ± 0.0028 | 0.0175 ± 0.0056
27 | C11A A14U G66U C67A | < 1e-05 |  |  |  | 
28 | U30A U56A | 9.28e-05 ± 1.4e-05 |  |  |  | 0.00496 ± 0.00075
29 | U55A C67A | 0.000444 ± 0.00015 |  | 0.00115 ± 0.00052 |  | 0.00563 ± 0.0018
30 | A12C G51U | < 1e-05 |  | < 1e-05 |  | 
31 | G9A G38C | < 1e-05 | < 1e-05 | < 1e-05 |  | 
32 | A42G U57A G66U | < 1e-05 |  |  |  | 
33 | A6C U47C U54A G59A C70U | < 1e-05 |  |  |  | 
34 | G44C C68A | < 1e-05 | < 1e-05 | < 1e-05 | < 1e-05 | < 1e-05
35 | G7C G66U | < 1e-05 | < 1e-05 | < 1e-05 | < 1e-05 | 
36 | G41C G59A | < 1e-05 |  | < 1e-05 |  | 
37 | G29A G37U G40U U65G C68U | < 1e-05 |  |  |  | 
38 | A14U G35U U69G | 0.000295 ± 0.00012 |  |  |  | 6.56e-05 ± 1.9e-05
39 | G35A A48U C71U | < 1e-05 |  |  |  | 
40 | A52C C68G | 4.36e-05 ± 1.5e-05 |  | 0.000126 ± 3.5e-05 |  | 2.34e-05 ± 1.1e-05
41 | G59A G60U C61A | < 1e-05 |  | < 1e-05 | < 1e-05 | 
42 | A6C U31A | < 1e-05 |  | < 1e-05 |  | 3.99e-05 ± 1.3e-05
43 | G43C A52C U54G | < 1e-05 |  | < 1e-05 |  | < 1e-05
44 | U47G C71U | 0.000224 ± 2.2e-05 | 0.000648 ± 8.2e-05 | 0.001 ± 0.00012 | 0.00216 ± 0.00038 | 0.00702 ± 0.00088
45 | G7A A52G | < 1e-05 |  | < 1e-05 |  | < 1e-05
46 | G44U A52U G62C | < 1e-05 | < 1e-05 |  | < 1e-05 | 
47 | C8G A36C | < 1e-05 | < 1e-05 | < 1e-05 | < 1e-05 | 
